In patent US20050244902A1 one finds ratio of median inhibitory dose (ID50) data, which are given here for two molecules.

The assay concerns the target antiserum 98192. Briefly: RIA, displacement of 125I-proBNP 1-10Tyr tracer from antiserum 98192. On the technique in general: Displacement assays read how much labelled ligand stays bound in the presence of the test substance.

With LGSPGSASDLETSGLQEQR, the ratio of median inhibitory dose (ID50) is 0.0006. In the case of PLGSPGSASDLETSGLQEQR [N-terminal truncated fragment of human proBNP 1-21 with the N-terminal histidine removed], the ratio of median inhibitory dose (ID50) came to 0.001.
